# Assay results reported in patent publication US20240358755A1 (IMMATICS BIOTECHNOLOGIES, published 2024).
# Target: T1, HLA-A*03:01 (human)
# T1 construct: Peptide-receptive MHC class I monomer in the UV-ligand exchange assay
# Experiment: UV peptide exchange, anti-b2m ELISA; exchange yield grade
# Text: (§1) Candidate peptides for T cell based therapies according to the present invention were further tested for their MHC binding capacity (affinity). The individual peptide-MHC complexes were produced by UV-ligand exchange, where a UV-sensitive peptide is cleaved upon UV-irradiation and exchanged with the peptide of interest as analyzed. Only peptide candidates that can effectively bind and stabilize the peptide-receptive MHC molecules prevent dissociation of the MHC complexes. To determine the yield of the exchange reaction, an ELISA was performed based on the detection of the light chain (β2m) of stabilized MHC complexes. The assay was performed as generally described in Rodenko et al. (Rodenko et al., 2006).
# (§2) 96 well MAXISorp plates (NUNC) were coated over night with 2 μg/ml streptavidin in PBS at room temperature, washed 4× and blocked for 1 h at 37° C. in 2% BSA containing blocking buffer. […] Peptide-MHC monomers of the UV-exchange reaction were diluted 100-fold in blocking buffer. Samples were incubated for 1 h at 37° C., washed four times, incubated with 2 μg/ml HRP conjugated anti-β2m for 1 h at 37° C., washed again and detected with TMB solution that is stopped with […]. Absorption was measured at 450 nm.
row,Binder,peptide exchange yield [%]
1,IVFLLQQGEK,50 to 75
2,AVLGALLRH,≥ 75
3,KVGAVVHLK,50 to 75
4,SLFGGLFTR,≥ 75
5,MVNWSLTNK,≥ 75
6,KIMEILNLK,≥ 75
7,IIVPSFYK,50 to 75
8,MLSAQFILK,≥ 75
9,ALAQGANLK,50 to 75
10,VIYNQTLMK,≥ 75
11,LLFKGLMWK,≥ 75
12,LIYIPTNSIYK,≥ 75
13,VIFLHQPPK,≥ 75
14,TTAAVYILK,50 to 75
15,LALLGAPPPK,20 to 50
16,RVIEVVMNSK,≥ 75
17,SMNSKALRWK,50 to 75
18,RIVTYIVAK,50 to 75
19,VVRASSGLK,50 to 75
20,RTLPLEGSPK,50 to 75
21,RILEVVRQPK,≥ 75

row,Binder,peptide exchange yield [%]
1,LIAGLIFLK,50 to 75
2,SLFPYFLNK,≥ 75
3,AILVPQPPK,50 to 75
4,KLLLLSSVK,50 to 75
5,ILAASFQAR,50 to 75
6,SVISVLTTPK,≥ 75
7,MTYQQPFSNR,≥ 75
8,AILLPQLPK,≥ 75
9,MIFSGVFLR,≥ 75
10,MTFVPLLAR,≥ 75
11,TVTSAIVNR,50 to 75
12,GSCSFALSR,≥ 75
13,SVFSLVHLFDK,≥ 75
14,ATNSFLLIK,≥ 75
15,RLYSGSSFLY,≥ 75
16,ATLQAVTLYKK,≥ 75
17,ILAPPAILK,≥ 75
18,SLATAISAK,50 to 75
19,GSLQTLPPK,50 to 75
20,KLIAGLIFLK,50 to 75
21,SLIPIVPFKS,20 to 50

row,Binder,peptide exchange yield [%]
1,ILQLITVNR,50 to 75
2,AVFVNWEQTKK,≥ 75
3,GTFIAPVMK,≥ 75
4,TLLSFKTVLFK,≥ 75
5,GVCSTLTIK,≥ 75
6,LSGPVTFLR,50 to 75
7,TVATQVATSK,50 to 75
8,KTIDLVIVR,≥ 75
9,KVLVDFLLK,50 to 75
10,ASAIPAGAK,50 to 75
11,AVFLGNPSNQK,≥ 75
12,SVYMATTLK,≥ 75
13,AILAPPAILK,≥ 75
14,STQSSLLYLK,50 to 75
15,GTVFVLLSK,20 to 50
16,AVVSHFILY,50 to 75
17,RLCPAAPTGK,≥ 75
18,TTLENLPQK,50 to 75
19,ETYGTFVLR,50 to 75

# Target: T2, HLA-B*07:02 (human)
# T2 construct: Peptide-receptive monomer in the UV-ligand exchange assay
# Experiment: as above
# Text: as §1, §2
row,Binder,peptide exchange yield [%]
1,SPVETRSLL,50 to 75
2,AVDLGVLEL,50 to 75
3,SPLPHLGPL,50 to 75
4,LPTRSLPAF,50 to 75
5,MPANFETIGF,≥ 75
6,APQPRSLAA,≥ 75
7,SPVSASWIL,≥ 75
